In article PMC9232537 one finds pyrene actin (1 µM, 10% labeled) polymerization with Arp2/3 complex (50 nM), N-WASP (200 nM) and increasing MirA; MirA concentration for half-maximum activity (time to half-maximum fluorescence) data, which are given here for 1 substance.

The target of the test is 6xHis-N-WASP (UniProt O00401).
Sequence of UniProt O00401 (O00401 whole entry): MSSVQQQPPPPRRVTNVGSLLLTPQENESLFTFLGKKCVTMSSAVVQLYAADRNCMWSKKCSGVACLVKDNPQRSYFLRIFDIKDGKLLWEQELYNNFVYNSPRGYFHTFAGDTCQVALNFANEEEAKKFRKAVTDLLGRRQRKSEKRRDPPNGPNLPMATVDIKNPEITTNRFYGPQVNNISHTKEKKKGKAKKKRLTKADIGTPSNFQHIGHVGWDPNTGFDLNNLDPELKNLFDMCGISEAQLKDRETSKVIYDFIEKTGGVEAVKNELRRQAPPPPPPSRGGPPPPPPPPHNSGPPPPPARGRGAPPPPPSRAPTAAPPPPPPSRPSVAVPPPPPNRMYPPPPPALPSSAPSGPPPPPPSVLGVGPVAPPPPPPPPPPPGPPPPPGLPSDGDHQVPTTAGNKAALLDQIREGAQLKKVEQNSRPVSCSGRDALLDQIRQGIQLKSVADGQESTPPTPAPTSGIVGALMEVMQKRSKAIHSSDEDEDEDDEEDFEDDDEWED

purified native MirA (natural protein) yielded a pyrene actin (1 µM, 10% labeled) polymerization with Arp2/3 complex (50 nM), N-WASP (200 nM) and increasing MirA; MirA concentration for half-maximum activity (time to half-maximum fluorescence) of 60 nM.
